{
  "source": "patent US20090188010A1",
  "about": "(HEXIMA, published 2009)",
  "binders": {"B1": {"name": "recombinant C1 inhibitor with N-terminal hexahistidine tag, expressed in E. coli (other)", "chain": "DRICTNCCAGTKGCKYFSDDGTFVCEGESDPRNPKACTLNCDPRIAYGVCPRSEEKKN", "notes": "also called 6H.C1; not shown: hexahistidine tag at the N-terminus from the pQE-30 vector"}},
  "target": "T1, NaPI-insensitive chymotrypsin from H. punctigera (HpCh5), native enzyme from the larval gut (Helicoverpa punctigera)",
  "T1 construct": "also called NaPI-insensitive protease; Rech1a",
  "T1 sequence (chain, as listed by the source limits assumed)": "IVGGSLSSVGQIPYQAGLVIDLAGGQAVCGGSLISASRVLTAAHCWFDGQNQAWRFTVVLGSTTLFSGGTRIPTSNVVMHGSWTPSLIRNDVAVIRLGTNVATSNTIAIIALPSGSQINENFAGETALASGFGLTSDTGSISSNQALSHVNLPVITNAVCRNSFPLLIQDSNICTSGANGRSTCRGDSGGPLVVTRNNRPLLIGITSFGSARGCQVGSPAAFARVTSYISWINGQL",
  "test": "affinity column of immobilized recombinant C1, trypsin-depleted gut extract passed through",
  "procedure": "The midgut was dissected from 80 fourth instar larvae and buffer soluble extracts were prepared. The gut extract was depleted of trypsins by repeated passage through a benzamidine-Sepharose affinity column. […] This column was expected to specifically bind NaPI-sensitive chymotrysins.\nThe filtered gut extract was passed through the benzamidine column five times to remove the trypsins.",
  "data": [
    {"binder": "B1", "values": [
      {"measurement": "binding result", "value": "no binding"}
    ]}
  ]
}
